Changes are numbered by the printed parent chain.
How the values were obtained:
[1] = target: T1, huCD33-G69-Fc recombinant protein (human, UniProt P20138 18-259); experiment: BLI;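 further: scFvs from periplasmic extracts captured on biosensors via anti-V5 antibody, exposed to recombinant huCD33 variants for 2 min, 5 min dissociation, scored as binding, no binding or ambiguous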
T1 construct: extracellular domain; also called CD33 R69G
Experimental: Discovered scFvs were analyzed for binding to huCD33-R69-His or huCD33-G69-Fc recombinant proteins (for anti-CD33 scFvs; for CLL-1 scFvs, huCLL1-K244-Avi-Tev-His or huCLL1-Q244-Avi-Tev-His were used; for FLT3, huFLT3-T227-His or huFLT3-M227-Fc were used) using BLI on a ForteBio Octet HTX instrument. Streptavidin-coated biosensors were loaded with biotinylated anti-V5 tag monoclonal antibody for 5 min and were then quenched and blocked with 20 μM amine-PEG2-Biotin for 5 min. scFvs were captured on biosensors from scFv clone periplasmic extracts. huCD33 (or huCLL-1, or huFLT3) proteins were then associated with the captured scFvs for 2 minutes, followed by dissociation with buffer (1×HBST [10 mM HEPES pH 7.4, 150 mM NaCl, 0.05% Tween-20], 1 g/L BSA) for 5 minutes. […] Data was fitted with 1:1 Langmuir equation and off-rate values were reported.

[2] = target: T2, huCD33-G69 stably expressed on Jurkat cells (human, UniProt P20138 18-364); experiment: FACS on cells;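 further: fixed Jurkat cells bearing either CD33 variant, barcoded by dye, exposed to myc-tagged scFv periplasmic extracts, detected with anti-myc PE antibody and read by flow cytometry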
T2 construct: whole, on cells; >200,000 receptors per cell; also called CD33 Mutant; CD33 R69G
T2 sequence (P20138 18-364 R69G): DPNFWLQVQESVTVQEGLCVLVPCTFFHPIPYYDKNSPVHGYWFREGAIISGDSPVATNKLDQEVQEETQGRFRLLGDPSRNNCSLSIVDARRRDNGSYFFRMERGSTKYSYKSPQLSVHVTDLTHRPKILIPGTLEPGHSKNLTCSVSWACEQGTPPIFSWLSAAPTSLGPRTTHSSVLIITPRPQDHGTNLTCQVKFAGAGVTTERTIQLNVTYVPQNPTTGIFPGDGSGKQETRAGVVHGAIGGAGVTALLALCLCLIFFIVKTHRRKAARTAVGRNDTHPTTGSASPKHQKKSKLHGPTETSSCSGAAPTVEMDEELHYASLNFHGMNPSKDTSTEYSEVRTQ
Experimental: (§1) Jurkat cells were engineered to stably express either the huCD33-R69 or huCD33-G69 variant at >200,000 receptors per cell. Parental, huCD33-R69, and huCD33-G69 Jurkat cell lines were stained with differing levels of CellTrace Violet Cell Proliferation Kit (ThermoFisher, cat. #C34557) to barcode each cell line. Barcoded Jurkat cell lines were fixed with paraformaldehyde and incubated with myc-labeled scFv periplasmic extracts and a secondary anti-myc PE-conjugated monoclonal antibody. Appropriate positive and negative controls were used. Stained cells were analyzed by flow cytometry (CytoFLEX, Beckman Coulter, Inc.) and binding was assessed by change in PE mean fluorescence intensity (MFI) of the barcoded cell populations.

[3] = target: T3, huCD33-R69 stably expressed on Jurkat cells (human, UniProt P20138 18-364); experiment: FACS on cells;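 further: fixed Jurkat cells bearing either CD33 variant, barcoded by dye, exposed to myc-tagged scFv periplasmic extracts, detected with anti-myc PE antibody and read by flow cytometry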
T3 construct: whole, on cells; >200,000 receptors per cell; also called CD33 WT; CD33^ARG69
T3 sequence (P20138 18-364): as the sequence (P20138 18-364 R69G) above, with G52R counted along it
Experimental: as §1

T1 sequence (P20138 18-259 R69G): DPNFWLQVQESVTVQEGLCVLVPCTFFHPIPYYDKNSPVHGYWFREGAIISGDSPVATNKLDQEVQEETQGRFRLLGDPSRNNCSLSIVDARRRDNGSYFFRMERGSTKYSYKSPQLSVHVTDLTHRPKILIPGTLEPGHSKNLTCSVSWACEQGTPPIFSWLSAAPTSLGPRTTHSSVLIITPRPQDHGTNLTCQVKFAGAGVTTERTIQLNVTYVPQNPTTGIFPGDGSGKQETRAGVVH

B1: Polypeptide No. 7 (scFv, V domains shown)
VH: QVQLVQSGAEVKKPGASVKVSCKASGYTFTDYYMHWVRQAPGQGLEWMGWINPNSGGTNYAQKFQGRVTMTRDTSTSTVYMELSSLRSEDTAVYYCARDSRIAVAASSFDYWGQGTLVTVSS
VL: DIQMTQSPSSLSASVGDRVTITCRASRGINNWLTWYQQKPGKAPKLLIYGASSLQSGVPSRFSGSGSGTDFTLTISSLQPEDFATYYCQQSYRIPYTFGQGTKLEIKR
notes: scFv
- binding result [1]: no binding
- geometric mean MFI fold change over Jurkat parental [2]: < 2 fold
- geometric mean MFI fold change over Jurkat parental [3]: 10 to 30 fold

B2: Polypeptide No. 20 (scFv, V domains shown)
VH: QVQLVQSGAEVKKPGASVKVSCKASGYMFTGYYIHWVRQAPGQGLEWMGWINPNSGGTNYAQKFQGRVTMTRDTSTSTVYMELSSLRSEDTAVYYCAKDRFGSGNYGYMDVWGKGTTVTVSS
VL: B1 VL with R27Q, G28S, N30D, N31R, T34A, R93S, I94T, Y96W, K103R
notes: scFv
- geometric mean MFI fold change over Jurkat parental [2]: < 2 fold
- geometric mean MFI fold change over Jurkat parental [3]: 10 to 30 fold

B3: Polypeptide No. 13 (scFv, V domains shown)
VH: QVQLVQSGAEVKKPGASVKVSCKASGYSFTGYYMHWVRQAPGQGLEWMGWINPNSGGTYFAQNFQGRVTMTRDTSTSTVYMELSSLRSEDTAVYYCVKDRGDRVVTSYLDYWGQGTLVTVSS
VL: B1 VL with R27Q, N30R, T34A, G50A, I94T
notes: scFv
- binding result [1]: no binding
- geometric mean MFI fold change over Jurkat parental [2]: < 2 fold
- geometric mean MFI fold change over Jurkat parental [3]: 10 to 30 fold

B4: Polypeptide No. 19 (scFv, V domains shown)
VH: EVQLLESGGGLVQPGGSLRLSCAASGFTFSSYWMHWVRQAPGKGLEWVSGFSGSARTYYADSVKGRFTISRDNSKNTLYLQMNSLRAEDTAVYYCAREWSGFDYWGQGTLVTVSS
VL: DIQMTQSPSSLSASVGDRVTITCRASQNIGPWLAWYQQKPGKAPKLLIYDAKDLHPGVPSRFSGSGSGTDFTLTISSLQPEDFATYYCQQANTFPMTFGQGTRLEIKR
notes: scFv
- binding result [1]: no binding
- geometric mean MFI fold change over Jurkat parental [2]: < 2 fold
- geometric mean MFI fold change over Jurkat parental [3]: > 30 fold

B5: Polypeptide No. 10 (scFv, V domains shown)
VH: QVQLVQSGAEVKKPGASVKVSCKASGDTFTTYAISWVRQAPGQGLEWMGWINPNSGVATYANKFQGRVTMTRDTSTSTVYMELSSLRSEDTAVYYCAREGIVGATDAFDIWGQGTMVTVSS
VL: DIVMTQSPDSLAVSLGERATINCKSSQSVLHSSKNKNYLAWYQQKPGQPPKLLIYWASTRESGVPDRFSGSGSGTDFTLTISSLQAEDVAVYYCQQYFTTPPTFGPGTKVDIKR
notes: scFv
- binding result [1]: no binding
- geometric mean MFI fold change over Jurkat parental [2]: < 2 fold
- geometric mean MFI fold change over Jurkat parental [3]: 2 to 10 fold

B6: Polypeptide No. 37 (scFv, V domains shown)
VH: QVQLVQSGAEVKKPGASVKVSCKASGYTFTGYYLHWVRQAPGQGLEWMGVISPSGGGTSYAQKFQGRVTMTRDTSTSTVYMELSSLRSEDTAVYYCARAGFGEGVFRHWGQGTLVTVSS
VL: not shown
notes: scFv
- geometric mean MFI fold change over Jurkat parental [2]: 2 to 10 fold
- geometric mean MFI fold change over Jurkat parental [3]: < 2 fold

B7: Polypeptide No. 6 (scFv, V domains shown)
VH: QVQLVQSGAEVKKPGASVKVSCKASGYTFTAYYTHWVRQAPGQGLEWMGWMNPNSGHTSYAQKFQGRVTMTRDTSTSTVYMELSSLRSEDTAVYYCAREAYDSFDYWGQGTLVTVSS
VL: DIQMTQSPSSLSASVGDRVTITCRASQSISSYLNWYQQKPGKAPKLLIYEASTLETGVPSRFSGSGSGTDFTLTISSLQPEDFATYYCQQANSFPFTFGPGTKVDIKR
notes: scFv
- binding result [1]: no binding
- geometric mean MFI fold change over Jurkat parental [2]: < 2 fold
- geometric mean MFI fold change over Jurkat parental [3]: > 30 fold

B8: Polypeptide No. 17 (scFv, V domains shown)
VH: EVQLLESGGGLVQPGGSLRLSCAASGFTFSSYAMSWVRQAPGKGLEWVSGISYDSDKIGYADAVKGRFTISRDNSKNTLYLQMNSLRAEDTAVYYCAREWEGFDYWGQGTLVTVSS
VL: B7 VL with S28G, S31N, Y32N, A51S, A91S, N92Y, F94A, F96L, P100G, D105E
notes: scFv
- binding result [1]: no binding
- geometric mean MFI fold change over Jurkat parental [2]: < 2 fold
- geometric mean MFI fold change over Jurkat parental [3]: 2 to 10 fold

B9: Polypeptide No. 18 (scFv, V domains shown)
VH: QVQLVQSGAEVKKPGASVKVSCKASGYTFTDHYMHWVRQAPGQGLEWMGWINPNSGGTNYAQKFQGRVTMTRDTSTSTVYMELSSLRSEDTAVYYCAKDKFGDEGSGWYGDFQHWGQGTLVTVSS
VL: not shown
notes: scFv
- binding result [1]: no binding
- geometric mean MFI fold change over Jurkat parental [2]: < 2 fold
- geometric mean MFI fold change over Jurkat parental [3]: 2 to 10 fold

B10: Polypeptide No. 9 (scFv, V domains shown)
VH: QVQLVQSGAEVKKPGSSVKVSCKASGGTFSSDAINWVRQAPGQGLEWMGGFDPEDGETIYAQKFQGRVTITADESTSTAYMELSSLRSEDTAVYYCARGPSGYDFEFDYWGQGTLVTVSS
VL: DIQMTQSPSSLSASVGDRVTITCRSSRNISHWLAWYQQKPGKAPKLLIYKASSLESGVPSRFSGSGSGTDFTLTISSLQPEDFATYYCQQAISFPLTFGGGTKVEIKR
notes: scFv
- binding result [1]: no binding
- geometric mean MFI fold change over Jurkat parental [2]: < 2 fold
- geometric mean MFI fold change over Jurkat parental [3]: 2 to 10 fold

B11: Polypeptide No. 4 (scFv, V domains shown)
VH: QVQLVQSGAEVKKPGASVKVSCKASGGTFSSYAISWVRQAPGQGLEWMGWINPNSGNTGYAQKFQGRVTMTRDTSTSTVYMELSSLRSEDTAVYYCAREHGDMDVWGQGTTVTVSS
VL: EIVMTQSPATLSVSPGERATLSCRASQNINSDLAWYQQKPGQAPRLLIYGASTRATGIPARFSGSGSGTEFTLTISSLQSEDFAVYYCQQYDSLPFTFGPGTKVDIKR
notes: scFv
- binding result [1]: no binding
- geometric mean MFI fold change over Jurkat parental [2]: < 2 fold
- geometric mean MFI fold change over Jurkat parental [3]: > 30 fold

B12: Polypeptide No. 16 (scFv, V domains shown)
VH: EVQLVESGGGLVKPGGSLRLSCAASGFTFSDNSMNWVRQAPGKGLEWVSYISSSGSTIYYADSVKGRFTISRDDSKNTLYLQMNSLKTEDTAVYYCARGRASSWPNWFDPWGQGTLVTVSS
VL: DIVMTQSPLSLPVTPGEPASISCRSSQSLLHSNGYNYLDWYLQKPGQSPQLLIYSASNLQSGVPDRFSGSGSGTDFTLKISRVEAEDVGVYYCMQALQTPPTFGQGTKLEIKR
notes: scFv
- binding result [1]: no binding
- geometric mean MFI fold change over Jurkat parental [2]: < 2 fold
- geometric mean MFI fold change over Jurkat parental [3]: 2 to 10 fold

B13: Polypeptide No. 24 (scFv, V domains shown)
VH: QVQLVQSGAEVKKPGSSVKVSCKASGYSFTSYGISWVRQAPGQGLEWLGWISAYNGNTNYGQSLQGRVTITADESTSTAYMELSSLRSEDTAVYYCARARGAGTFFDYWGQGTLVTVSS
VL: B12 VL with S55D, S57T, Q60P, S61T, P101F
notes: scFv
- geometric mean MFI fold change over Jurkat parental [2]: < 2 fold
- geometric mean MFI fold change over Jurkat parental [3]: > 30 fold

B14: Polypeptide No. 15 (scFv, V domains shown)
VH: EVQLLESGGGLVQPGGSLRLSCAASGFTFSIYEIHWVRQAPGKGLEWVSAISGSGGSTYYADSVKGRFTISRDNSKNTLYLQMNSLRAEDTAVYYCARSYCGGDCWDYYYYYGMDVWGQGTTVTVSS
VL: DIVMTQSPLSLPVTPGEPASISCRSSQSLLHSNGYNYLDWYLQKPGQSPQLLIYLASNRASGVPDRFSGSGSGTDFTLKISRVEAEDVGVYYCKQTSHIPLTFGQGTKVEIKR
notes: scFv
- binding result [1]: no binding
- geometric mean MFI fold change over Jurkat parental [2]: < 2 fold
- geometric mean MFI fold change over Jurkat parental [3]: 2 to 10 fold

B15: Polypeptide No. 8 (scFv, V domains shown)
VH: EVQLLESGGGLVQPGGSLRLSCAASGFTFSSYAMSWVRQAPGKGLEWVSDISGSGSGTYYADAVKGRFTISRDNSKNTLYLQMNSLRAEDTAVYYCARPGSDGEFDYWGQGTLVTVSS
VL: DIQMTQSPSSLSASVGDRVTITCRASQSVSSFLNWYQQKPGKAPKLLIYAASSLQSGVPSRFSGSGSGTDFTLTISSLQPEDFATYYCQQSYTTPLTFGQGTKVEIKR
notes: scFv
- binding result [1]: no binding
- geometric mean MFI fold change over Jurkat parental [2]: < 2 fold
- geometric mean MFI fold change over Jurkat parental [3]: 10 to 30 fold

B16: Polypeptide No. 11 (scFv, V domains shown)
VH: QVQLVQSGAEVKKPGASVKVSCKASGDTFTNHYMHWVRQAPGQGLEWMGWINPNSGGTNYAQKFQGRVTMTRDTSTSTVYMELSSLRSEDTAVYYCARDLVPAAVGGYFDYWGQGTLVTVSS
VL: B15 VL with V29L, S30G, F32W, N34A, S91A, Y92N, T93S, T94F
notes: scFv
- binding result [1]: no binding
- geometric mean MFI fold change over Jurkat parental [2]: < 2 fold
- geometric mean MFI fold change over Jurkat parental [3]: 2 to 10 fold

B17: Polypeptide No. 12 (scFv, V domains shown)
VH: EVQLLESGGGLVQPGGSLRLSCAASGFTFSSHWMSWVRQAPGKGLEWVSAISGSGGSTYYADSVKGRFTISRDNSKNTLYLQMNSLRAEDTAVYYCARDDNSGSQADWGQGTLVTVSS
VL: DIQMTQSPSSLSASVGDRVTITCQASQDIDNYLNWYQQKPGKAPKLLIYDASNLETGVPSRFSGSGSGTDFTLTISSLQPEDFATYYCQQSYSTPLTFGGGTKLEIKR
notes: scFv
- binding result [1]: no binding
- geometric mean MFI fold change over Jurkat parental [2]: < 2 fold
- geometric mean MFI fold change over Jurkat parental [3]: 2 to 10 fold

B18: Polypeptide No. 5 (scFv, V domains shown)
VH: QVQLVQSGAEVKKPGASVKVSCKASGNTFTSYGISWVRQAPGQGLEWMGWINPNSGGTKYAQKFQGRVTMTRDTSTSTVYMELSSLRSEDTAVYYCARESWFGELYYGMDVWGKGTTVTVSS
VL: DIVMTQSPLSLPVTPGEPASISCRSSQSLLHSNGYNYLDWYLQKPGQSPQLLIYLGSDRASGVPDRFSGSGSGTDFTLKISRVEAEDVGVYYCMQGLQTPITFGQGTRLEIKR
notes: scFv
- binding result [1]: no binding
- geometric mean MFI fold change over Jurkat parental [2]: < 2 fold
- geometric mean MFI fold change over Jurkat parental [3]: > 30 fold

B19: Polypeptide No. 14 (scFv, V domains shown)
VH: QVQLVQSGAEVKKPGASVKVSCKASGYTFTGYYMHWVRQAPGQGLEWMGIINPSGGSTSYAQKFQGRVTMTRDTSTSTVYMELSSLRSEDTAVYYCARAAPYYYDSSGYYSGGYYFDYWGQGTLVTVSS
VL: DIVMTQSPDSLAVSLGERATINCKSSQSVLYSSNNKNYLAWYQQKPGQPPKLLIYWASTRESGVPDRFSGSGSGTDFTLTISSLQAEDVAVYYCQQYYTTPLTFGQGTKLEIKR
notes: scFv
- binding result [1]: no binding
- geometric mean MFI fold change over Jurkat parental [2]: < 2 fold
- geometric mean MFI fold change over Jurkat parental [3]: > 30 fold

Reference: patent publication US20240101668A1 (WUGEN, published 2024)
